Test results published in the nanobody polyreactivity screen of Harvey et al. (2022).

Test: yeast display, Sf9 membrane polyspecificity reagent, FACS + sequencing; frameworks hold sequencing errors
Outline: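 After 36–48 hours of galactose induction, yeast (Saccharomyces cerevisiae BJ5465) displaying a synthetic nanobody library were stained at 4 °C for 1 hour with 10% biotinylated, detergent-solubilized Sf9 membrane reagent. Streptavidin microbeads enriched the stained cells before FACS sorting into low and high (top ~1%) gates on anti-HA and streptavidin fluorescence. Each clone's polyreactivity label reflects its gate of origin.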
With “QVQLVESGGALVQAGGSLRLSCAASGLIFYKYAMGWYRQAPGKERELVASISTGGGSTYYADSVKGRFTISRDNAKNTVYLQMNSLKPEDTAVYYCAARWWRRFRGSHSLYDYWGQGTLVTVSS” the “polyreactivity (PSR sort gate)” value was “high polyreactivity”. For “QVQLVESGGALVQAGGSLRLSCAASGRIFASNGMGWYRQAPGKEREFVAAINRSGGSTYYADSVKGRFTISRDNAKNTVYLQMNSLKPEDTAVYYCNKDYLYSYLWGWKVYSYDYWGQGTQVTVSS”, the “polyreactivity (PSR sort gate)” value was “low polyreactivity”. For “QVQLVESGGALVQAGGSLRLSCAASGRIFIVYAMGWSRQAPGKERDLVAAITSSGGGTYYADSVKGRFTISRDNAKNTVYLQMNSLKQEDSAVFYCATRYPYRPGYEYWGQGTQVTVSS”, the “polyreactivity (PSR sort gate)” value was “low polyreactivity”. In the case of “QVQLVESGGALVQAGGSLRLSCAASGRTFWDYAMGWYREAPGKERELVAAITWGGGSTYYADSVKGRFTISRDNAKNTVYLQMNSLKPVDTAVYYCAAGRGRHTYNYWGQGTQVTVTS”, the “polyreactivity (PSR sort gate)” value is reported as “low polyreactivity”. For “QVQLVESGGALVQAGGSLRLSCAASGRTLGGYAMGWYRQAPGKERELVAAITRRGGTTYYADSVKGRFTISRDNAKNTVYLQMNSLKPEDTAVYYCAKYTVQYAISHYDYWGQGTQVTVSS”, the “polyreactivity (PSR sort gate)” value was “high polyreactivity”. With “QVQLVESGGALVQAGGSLRLSCAASGSIFFSYAMGWYRQAPGKERELVAAISTSGGNTYYADSVKGRFTISRDNAKHTVYLQMNSLKPEDTAVYYCNDRGSYPPYRSYGYWGQGTQVTVSS” the “polyreactivity (PSR sort gate)” value was “low polyreactivity”. In the case of “QVQLVESGGALVQAGGSLRLSCAASGSIFGLKDMRWYRPAPGKEREFVAAITWSGGSSTYYADSVKGRFTISRDNAKITVSLQMNSVKTEDTAVYYCAADDRTLPADVDYWGQGTQVTVSS”, the “polyreactivity (PSR sort gate)” value is reported as “high polyreactivity”. For “QVQLVESGGALVQAGGSLRLSCAASGSIFWPNAMGWYRPAPGKERELVAAISWGTGSTYYADSVKGRFTISRDNAKNTVYLQMNSLKPEDTAVYYCAADGAYLDPYYDYWGQGTQVTVSS”, the “polyreactivity (PSR sort gate)” value was “low polyreactivity”. In the case of “QVQLVESGGALVQAGGSLRLSCAASGSISWKNAMGWYRKAPGKERELVAAISSTVTYYADSVKGRFTISRDNAKNTVYLQMNRLKPADTAVYYCAAEYLAYTTLYTGDYWGQGTQVTVSS”, the “polyreactivity (PSR sort gate)” value is reported as “low polyreactivity”. In the case of “QVQLVESGGALVQAGGSLRLSCAASGSTFVYYAMGWYRQAPGKERELVAAISRSGTSTYYADSVKGRFTISRDNAKNTVYLQMNSLKPEDTAVYYCNARKKQGYDYWGQGTQVTVSS”, the “polyreactivity (PSR sort gate)” value is reported as “high polyreactivity”. With “QVQLVESGGALVQAGGSLRLSCAASGSTFVYYAMRWYRQTPGKERELVAAIRSDASTNYADSVKGRFTISRDNAKNTVYLQMNILKPEDTAVYYCNTAQLVSDEFDYWGQGTQVTVSS” the “polyreactivity (PSR sort gate)” value was “low polyreactivity”. With “QVQLVESGGALVQAGGSLRLSCAASGYTSILYAMGWYRQAPGKEMELVASITKSGDDTYYADSVKGRFTISRDNAKNTVYLQMNSLKPEDTAVYYCAAEYTYGDYSYVWYDYWGQGTQVTVSS” the “polyreactivity (PSR sort gate)” value was “high polyreactivity”. In the case of “QVQLVESGGALVQAGGSLRLSCAASRITFTDNAMGWYRQAPGKERELVAAISSGASTYYADSVKGRFTISRDNAKNTVYLQMNSLKPEDSAVYYCATRQTYNYPWHYRYYYWGQGTQVTVSS”, the “polyreactivity (PSR sort gate)” value is reported as “high polyreactivity”. In the case of “QVQLVESGGALVQAGGSLRLSCAPSGLTFSDYAMGWYRQAPGKEREFVAGISSGGSTYYADSVKGRFTISRDNAKNTVYFQMKSLKPEDTAVYFCAGTRYNSWPIKFDYWGQGTQVTVSS”, the “polyreactivity (PSR sort gate)” value is reported as “high polyreactivity”. For “QVQLVESGGALVQAGGSLRLSLADSGMTFSQNAMGWYRQAPGKERELVAAISSSGTSTYYADSVKGRFTISRDNAKNTVYLQMNSLKPEDTAVYYCNAPPGTFQWQGHSDYWGQGTQVTVSS”, the “polyreactivity (PSR sort gate)” value was “low polyreactivity”. With “QVQLVESGGALVQAGRSLRLSCAASGRTFWVYAMGWYRQAPGKERELVAAIRWSAGTTYYADSVKGRFTISRDNAKNTVYLQMNSLKPEDTAVYYCAKRRYTAISYGYWGQGTKVTVSS” the “polyreactivity (PSR sort gate)” value was “high polyreactivity”. For “QVQLVESGGALVQARGSLRLSCAASGRTFVWYAMGWYRQAPGKERELVAAITLSGGSTYYADSVKGRFTISRDNAKNTVYLQMTSLKPEDTAVYYCAADGTYRPEDYDYWGQGTKVTVSS”, the “polyreactivity (PSR sort gate)” value was “low polyreactivity”. For “QVQLVESGGCIVQAGGSLRLSCAASGRICYTNAMVWYRQAPGKERELVAVISWGGDTTYYADSVKGRFTISRDNANNTVYLQMNSLKPEDTAGYYCNADWGPPYEIYDSWGQGTQVTVSS”, the “polyreactivity (PSR sort gate)” value was “low polyreactivity”. In the case of “QVQLVESGGCIVQAGGSLRLSCSASGLLFYINPMGWYRQAPGKEREFVAGINRNGGSTYYADSVKGRFTISRDNALYSVYLQMNSLKPEDTAVYYCNADQYWDRYFSWGQGTQGTVSS”, the “polyreactivity (PSR sort gate)” value is reported as “low polyreactivity”. For “QVQLVESGGCLFQAGGSLRLSCAASGFIFGHNAMGWYRQAPGTERELVAAITWSGGRTYYADSVKGRFTISRDNAKNTVYLQMISLKPEDKAVDYCNRRGRWRKYDYWGQGTQVTVSS”, the “polyreactivity (PSR sort gate)” value was “high polyreactivity”. With “QVQLVESGGCLLQAGGSLRLSCAASGYTFGKNAMGWYRPAPGKERELVARIRTNGGTTYYADSVKGRFTISRDIAKYTVYLQMYSLKPEDTAVDYCNAYRGYEYDYWGQGTHVTVSS” the “polyreactivity (PSR sort gate)” value was “low polyreactivity”. In the case of “QVQLVESGGCLVHAGGSLRLSCAAYGSILKYNAIGWYIQAPGKERELVAAITSRGGSTYYADSVKGRFTISRDNAKNTVYLQMNSLKPEDTAVYYCNRVYLGYFRYDYWGQGTQVTVSS”, the “polyreactivity (PSR sort gate)” value is reported as “high polyreactivity”. In the case of “QVQLVESGGCLVHAGGSLRVSSAASGITFILNAMGWYRQAHGKEREFVAAISTYRGNTYYADSVKGRFTISRDNVKNTFYLEMYSLKPEDTAVYYSNADLYFRQGDVDLLRYVYWVQGTQVTVSS”, the “polyreactivity (PSR sort gate)” value is reported as “low polyreactivity”. For “QVQLVESGGCLVKAGGSLRLSCAASGRIFLTNAIGWYRQAPGKESELVADISRAGSTYADSVKGRFTISRDNAKNTVYLQMNSLKPEDTAVYYCSADEYSPGDSRTRYDYWGQGTQVTVSS”, the “polyreactivity (PSR sort gate)” value was “low polyreactivity”. For “QVQLVESGGCLVQAAGRLRLSSAASGSTFYGYAMGWYRQAPGKERQLVAAITVRGGSTYYADSVKGRFTISRDNAKNTVYLQMYSLKPEDTAVYYCNAYIVSGFYVYDYWGQGTQVTVSS”, the “polyreactivity (PSR sort gate)” value was “high polyreactivity”. In the case of “QVQLVESGGCLVQAGCSLRLSCAASGGTFDVNAMGWYRQAPGKERELVAAITWSGGNTYYADSVKGRFTISRDNAKNTVYLQMNSLKPEDTAVYYCATDFSPVYYTRYDYWGQGTQVTVSS”, the “polyreactivity (PSR sort gate)” value is reported as “low polyreactivity”. In the case of “QVQLVESGGCLVQAGCSLRLSCAASGRIFSTYAMGWYRQAPGTERELVAAINKIGGSTYFADSVKGRFTISRDNAKNTVYLQMNSLKPEDTAVYYCAADAPYYPVRRYYYWGQGTQVTVSS”, the “polyreactivity (PSR sort gate)” value is reported as “low polyreactivity”. For “QVQLVESGGCLVQAGGRLRISSAASGSIFAINDIGWYRQAPGKERELVAAIRSGGRTYYADSVKGRFTISRDNAKNTVYLQMNSLKPEYTAVYYCNAGGKWIGSDNWGQGTQVTVSS”, the “polyreactivity (PSR sort gate)” value was “high polyreactivity”. For “QVQLVESGGCLVQAGGRLRLSCAASGFIFHGYAMGWYRPAPGKERELVAAISSRGGTTYYADSVQGRFTISRDKAKTTVYLQMNSLKPEDSAVDDCAADKIRYITSPVPFYYWGQGTQVTVSS”, the “polyreactivity (PSR sort gate)” value was “high polyreactivity”. With “QVQLVESGGCLVQAGGRLRLSSAASGGTFTFYAMGWYRQAPGKERELVATINWSGGSTYYADSVKGRFTISRDNAKNTVYLQMNSLKPEDTAVYYCNAAWPYKSVEYWGQGTQVTVSS” the “polyreactivity (PSR sort gate)” value was “low polyreactivity”. With “QVQLVESGGCLVQAGGSLRFSCAASGSTFGWYAMGWYRHAPGKERELVAAITSVGSTYYADYVKGRFRISRDNAKNTVYLQMNSLKPEDTAVYYCAKRFGSGWAWFGYWGQGTQVTVSS” the “polyreactivity (PSR sort gate)” value was “low polyreactivity”. With “QVQLVESGGCLVQAGGSLRLICAASGIILTQNAMGWYRQAPGKERELVAAITESGARTYYADSVKGRFTISRDNAKNTVYLQMNSLKPEDTAVYYCAAHTRTSGHNYWGQGTQVTVSS” the “polyreactivity (PSR sort gate)” value was “low polyreactivity”. In the case of “QVQLVESGGCLVQAGGSLRLIRDASGFIIRPYAMGWYRQAPGKEREFVAAITGGGSTYYADSVKGRFTISRDNAKNTVYLQMNSLKPEDTAVYYCNADRRRRSGGFAGWHFQRKDYWGQGTQVTVSS”, the “polyreactivity (PSR sort gate)” value is reported as “low polyreactivity”. For “QVQLVESGGCLVQAGGSLRLNCAASGGTFVNNDMGWYRQAPGKERELVAAIRSAGTTYYADSVKGRFTISRDNAKNSVYLQMNSLKPVDTAVYYCNADTTGYWSYGFQYYGEDYWGQGTQVTVSS”, the “polyreactivity (PSR sort gate)” value was “low polyreactivity”. With “QVQLVESGGCLVQAGGSLRLSCAASGFTFGRNYMGWYRQAPGKEREFVASISGSGGRTYYADSVKGRFTISRDNAKNTVYLQMNSLQPEDTAVYYCAAYRYSAYLYWDEYGGQGTQVTVSS” the “polyreactivity (PSR sort gate)” value was “high polyreactivity”. In the case of “QVQLVESGGCLVQAGGSLRLSCAASGFTFSSNAMGWYRQAPGKERELVAAISFNSTSTYYADSVKGRFTISRDNAKNTVYLQMNSLKPEDTAVYYCAADVPRVQSEPEYDYWGQGTQVTVSS”, the “polyreactivity (PSR sort gate)” value is reported as “low polyreactivity”. With “QVQLVESGGCLVQAGGSLRLSCAASGFTFTKYAMGWYRQAPGQERELVAAINRSGRTYYADSVKGRFTISRDNAKNTVYLQMNSLKPEDTAVYYCAADTRYQYSAYDYWGQGTQVTVSS” the “polyreactivity (PSR sort gate)” value was “high polyreactivity”. For “QVQLVESGGCLVQAGGSLRLSCAASGIIFGRYTMGWYRQAPGKERELVAAITSSGITYYADSVKGRVTISRDNAKNTVYLQMNSLKPEDTAVYYCNADYSSPGYYWPYDYWGQGTQVSVSS”, the “polyreactivity (PSR sort gate)” value was “low polyreactivity”. With “QVQLVESGGCLVQAGGSLRLSCAASGIIFYYYAMGWSRQAPGKEREFVAGIRWSSGSTYYADSVKGRFTISRDNAKNTVYLQMNSLKPEDTAVYYCAAAYLSWYGGYYYWGQGSQVTVSS” the “polyreactivity (PSR sort gate)” value was “low polyreactivity”. With “QVQLVESGGCLVQAGGSLRLSCAASGITFPGNAMGWYRPATGKERELVAVIRKSGTSTYYADSVKGRFTISRDNAKNTVYLQMISLIPEDTAVYYCAAGGPSTLDDYWGHGTQVTVSS” the “polyreactivity (PSR sort gate)” value was “low polyreactivity”. With “QVQLVESGGCLVQAGGSLRLSCAASGITYLEYAMGWYIQAPGKERELVATINSGGSTNYADSVKGRFTISRDNAKNTVYLQMNSLKPEDTAVYYCAAVVSDYVWRYEYWGQGTQVTVSS” the “polyreactivity (PSR sort gate)” value was “low polyreactivity”.
